Experimental data: PMC11598873, “Neutralizing VHH Antibodies Targeting the Spike Protein of PEDV” (Veterinary Sciences, 2024)

Assays:
[1] = target: T1, PEDV S protein of strain PEDV-JSXH-2021 in infected Vero E6 cells (Porcine epidemic diarrhea virus, …, UniProt Q91AV1, strain); assay: cell-based or functional assay
[2] = target: T1, PEDV S protein of strain PEDV-JSXH-2021 …; assay: immunostaining of cells or tissue; IFA on Vero E6 cells infected with PEDV-JSXH-2021 (MOI 0.01, 48 h), fixed with 4% paraformaldehyde; purified VHH as primary antibody overnight at 4 °C, mouse anti-His tag, then Alexa Fluor 555 goat anti-mouse IgG; uninfected cells as mock; conditions: one partner purified
[3] = target: T2, Recombinant PEDV S protein, strain PEDV-JSXH-2021, 3 × FLAG (pFastBac1-PEDV-S, rBV-PEDV-S) (Porcine epidemic diarrhea virus, …, UniProt Q91AV1, strain); assay: immunostaining of cells or tissue; IFA on Sf9 cells infected with rBV-PEDV-S (MOI 0.1, 48 h), fixed with 4% paraformaldehyde; diluted refolded VHH as primary antibody, mouse anti-His tag, then Alexa Fluor 488 goat anti-mouse IgG; uninfected Sf9 cells as mock; conditions: one partner purified
T2 construct: Spike (S) protein of porcine epidemic diarrhea virus strain PEDV-JSXH-2021; band of approximately 180 kDa on the blot; the plasmid was synthesised; also called PEDV S protein expressed in Sf9 cells; source: Sf9 cells infected with recombinant baculovirus rBV-PEDV-S; in fixed cells and in supernatant of sonicated cells; not shown: 3xFLAG, C-terminal, kept

[4] = target: T3, PEDV spike (S) protein, strain PEDV-JSXH-2021, bait pGBKT7-PEDV-S (Porcine epidemic diarrhea virus, …, UniProt Q91AV1, strain); assay: two-hybrid; yeast AH109; bait in pGBKT7, prey in pGADT7; growth on SD-TL, SD-TLH, SD-TLHA and blue colour on SD-TLHA + X-α-gal, 30 °C, 3–4 days; positive clones verified again after the library screen; conditions: partners not purified
T3 construct: Spike (S) protein of porcine epidemic diarrhea virus strain PEDV-JSXH-2021 (G1b type); source: yeast two-hybrid fusion (AH109)

Binder | concentration of VHH that completely neutralises infection of Vero E6 cells by PEDV-JSXH-2021 (serial dilutions from 200 ng/µL, read by IFA after 5 to 7 days) [1] [ng/µL] | further results
VHH1–89 (recombinant, pcDNA3.1-VHH, 6 × His) (VHH) VHH: QVQLQESGGGLVQAGGSLRLSCAASGYISDAYYMGWYRQAPGKEREFVATITHGTNTYYADSVKGRFTISRDNAKNTVYLQMNSLKPEDTAVYYCAVFLARIASFLPILLISLRYWGQGTQVTVSS | 12.5 | –
VHH2–28 (recombinant, pcDNA3.1-VHH, 6 × His) (VHH) VHH: QVQLQESGGGLVQAGGSLRLSCAASGSISLHPQMGWYRQAPGKERELVAGIATGGNTNYADSVKGRFTISRDNAKNTVYLQMNSLKPEDTAVYYCAVNEYHPRAMYALYIYWGQGTQVTVSS | 50 | –
VHH1–15 (recombinant, pcDNA3.1-VHH, 6 × His) (VHH, same VHH as m2; also called PEDV S-VHH; not shown: His6, C-terminal, kept) VHH: QVQLQESGGGLVQAGGSLRLSCAASGYISDAYYMGWYRQAPGKEREFVATITHGTNTYYADSVKGRFTISRDNAKNTVYLQMNSLKPEDTAVYYCAVLETRSYSFRYWGQGTQVTVSS | – | binding result [2]: binds; binding result [3]: binds
VHH1–15 (pGADT7-VHH library clone) (VHH, clone from a synthetic nanobody yeast library; also called PEDV S-VHH; source: yeast two-hybrid fusion (AH109)) VHH: QVQLQESGGGLVQAGGSLRLSCAASGYISDAYYMGWYRQAPGKEREFVATITHGTNTYYADSVKGRFTISRDNAKNTVYLQMNSLKPEDTAVYYCAVLETRSYSFRYWGQGTQVTVSS | – | binding result [4]: binds
VHH2–77 (recombinant, pcDNA3.1-VHH, 6 × His) (VHH) VHH: QVQLQESGGGLVQAGGSLRLSCAASGYISDAYYMGWYRQAPGKEREFVATITHGTNTYYADSVKGRFTISRDNAKNTVYLQMNSLKPEDTAVYYCAVFSTISVNIYTFLYVIFFYWGQGTQVTVSS | 12.5 | –
VHH2–18 (recombinant, pcDNA3.1-VHH, 6 × His) (VHH) VHH: QVQLQESGGGLVQAGGSLRLSCAASGYISDAYYMGWYRQAPGKEREFVATITHGTNTYYADSVKGRFTISRDNAKNTVYLQMNSLKPEDTAVYYCAASSLRKVLMTQLPTRLYYYWGQGTQVTVSS | 50 | –
VHH2–50 (recombinant, pcDNA3.1-VHH, 6 × His) (VHH) VHH: QVQLQESGGGLVQAGGSLRLSCAASGYISDAYYMGWYRQAPGKEREFVATITHGTNTYYADSVKGRFTISRDNAKNTVYLQMNSLKPEDTAVYYCAALFSIIVYYFSNSNLVFNYWGQGTQVTVSS | 25 | –
VHH1–41 (recombinant, pcDNA3.1-VHH, 6 × His) (VHH) VHH: QVQLQESGGGLVQAGGSLRLSCAASGSIFTFVRMGWYRQAPGKERELVAGIAIGSITYYADSVKGRFTISRDNAKNTVYLQMNSLKPEDTAVYYCAAQSVQKAETTSPFAYWGQGTQVTVSS | 25 | –
VHH1–4 (recombinant, pcDNA3.1-VHH, 6 × His) (VHH) VHH: QVQLQESGGGLVQAGGSLRLSCAASGTIFCYGGMGWYRQAPGKERELVAGITMGTSTNYADSVKGRFTISRDNAKNTVYLQMNSLKPEDTAVYYCAAAVMVAGPYQSWHGYWGQGTQVTVSS | 100 | –
